The values below are quoted from earlier work in article PMC10093836, “Stabilization of the Dimeric State of SARS-CoV-2 Main Protease by GC376 and Nirmatrelvir” (International Journal of Molecular Sciences, 2023).

The data set addresses Mpro (SARS-CoV-2) (UniProt P0DTD1).

For the substance Mpro (from UniProt P0DTD1), the Kd is 7 µM.
